From patent US20230312722A1 (NONA BIOSCIENCES SUZHOU, published 2023)
Like-named read-outs stand apart in the source and are kept apart here. Values belong to the binder of their own block, whether it stands above or below them.

Columns and labels:
[1] = target: T1, human B7H4 on the cell surface (human, UniProt Q7Z7D3 25-282); test: FACS on SK-BR-3 cells, expression supernatant at 1 X and 10X
T1 construct: whole, on cells; also called CHOK1/hu B7H4; B7H4 on SK-BR-3
T1 sequence (looked up): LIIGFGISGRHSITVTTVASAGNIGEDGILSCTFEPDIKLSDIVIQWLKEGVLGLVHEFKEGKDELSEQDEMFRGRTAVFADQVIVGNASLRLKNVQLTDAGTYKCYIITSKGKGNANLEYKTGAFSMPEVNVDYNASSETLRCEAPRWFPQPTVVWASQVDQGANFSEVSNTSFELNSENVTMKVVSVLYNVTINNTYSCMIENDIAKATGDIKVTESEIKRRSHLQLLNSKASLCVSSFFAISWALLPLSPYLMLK

[2] = target: T2, Human B7H4 (his tag), Sino Biological #10738-H08H (human, UniProt Q7Z7D3 25-259); test: SPR (Biacore T200), antibody captured on Protein A, B7H4-his as analyte, 1:1 fit
T2 construct: extracellular domain; Bought protein; also called hB7H4-ECD-his
T2 sequence (looked up): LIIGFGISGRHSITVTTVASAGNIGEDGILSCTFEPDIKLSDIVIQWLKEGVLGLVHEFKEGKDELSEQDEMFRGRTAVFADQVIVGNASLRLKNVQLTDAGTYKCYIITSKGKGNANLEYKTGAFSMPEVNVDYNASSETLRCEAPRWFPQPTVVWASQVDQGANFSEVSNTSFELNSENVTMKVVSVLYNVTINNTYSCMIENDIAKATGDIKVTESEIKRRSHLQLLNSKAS
Description: 10×HBS-EP+ (GE Healthcare, #BR-1006-69) was diluted 10-fold and then taken as an experimental buffer. The flow rate was set at 10 μL/min, and Protein A was coupled to 4 channels of a chip CM5 (GE Healthcare, #BR-1005-30) through the following procedures: 1) the injection time was set to 800 s, and a fresh mixture of 50 mM NHS and 200 mM EDC was injected into the 4 channels in a volume ratio of 1:1; 2) Protein A was diluted to 20 μg/mL with sodium acetate (GE Healthcare, #BR-1003-50) at pH 4.5 and injected into each channel for 800 s; and 3) 1 M ethanolamine at pH 8.5 was injected for 800 s to block the remaining active carboxyl groups on the chip surface. After blocking, the instrument was equilibrated with 1×HBS-EP+buffer for 2 hours, and the final coupling level of Protein A was about 2000 RU.
A multi-cycle kinetics mode was set at Biacore T200, and each cycle included antibody capture, analyte binding and chip regeneration. […] Finally, 10 mM glycine-hydrochloric acid at pH 1.5 (GE Healthcare, #BR-1003-54) was injected at the same flow rate for 30 s to regenerate the chip.
The experimental results were analyzed using the Biacore T200 analysis software 2.0, with channel 1 subtracted as a reference channel and a 1:1 kinetic fitting model selected as an analysis model.

[3] = target: T3, B7-H4 (Acro Biosystems, #B74-H82E2) (UniProt Q7Z7D3 29-258); test: BLI epitope competition; 1st Ab = row; competitor (2nd Ab) PR002418; inhibition of the 2nd Ab signal
T3 construct: Bought protein; also called B7-H4 captured on SA sensor
T3 sequence (looked up): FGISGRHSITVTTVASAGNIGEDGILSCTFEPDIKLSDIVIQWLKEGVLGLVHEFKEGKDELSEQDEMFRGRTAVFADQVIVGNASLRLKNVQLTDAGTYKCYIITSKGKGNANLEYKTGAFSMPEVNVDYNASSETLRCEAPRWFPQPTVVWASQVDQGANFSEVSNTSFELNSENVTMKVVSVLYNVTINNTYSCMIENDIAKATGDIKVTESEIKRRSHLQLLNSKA
Description: (§1) Step one, acquisition of 100% signal of antibodies: B7-H4 (Acro Biosystems, #B74-H82E2-200 μg) was captured at a capture height of 0.25 nm using an SA sensor (Fortebio, #18-5019). The sensor was equilibrated in a buffer for 120 s and then immersed in each antibody diluted to 100 nM for 240 s, and the final signal of the antibody binding to B7-H4 was recorded as the 100% signal of the antibody. Step two, epitope competition experiment: B7-H4 was captured using an SA sensor at a capture height of 0.25 nm. The sensor was immersed in a primary antibody (at a concentration of 100 nM) for 240 s, and then the SA sensor was immersed in a mixture of the primary and secondary antibodies (both at a final concentration of 100 nM) for 240 s, and the difference in signals after immersion of the sensor in the antibody mixture was recorded as the signal of the antibody as the secondary antibody. The inhibition rate was calculated according to the following formula: […]

[4] = target: T3, B7-H4 (Acro Biosystems, #B74-H82E2); test: BLI epitope competition; 1st Ab = row; competitor (2nd Ab) PR002421; inhibition of the 2nd Ab signal
Description: as §1

[5] = target: T3, B7-H4 (Acro Biosystems, #B74-H82E2); test: BLI epitope competition; 1st Ab = row; competitor (2nd Ab) Control antibody 1; inhibition of the 2nd Ab signal
Description: as §1

[6] = target: T3, B7-H4 (Acro Biosystems, #B74-H82E2); test: BLI epitope competition; 1st Ab = row; competitor (2nd Ab) Control antibody 2; inhibition of the 2nd Ab signal
Description: as §1

CD3 on human T cells [7] = target: T4, CD3 on human T cells (human, UniProt P07766 23-207; P04234 22-171; P09693 23-182); test: FACS on human T cells
T4 sequence (P07766 23-207 limits assumed, chain 1 of 3): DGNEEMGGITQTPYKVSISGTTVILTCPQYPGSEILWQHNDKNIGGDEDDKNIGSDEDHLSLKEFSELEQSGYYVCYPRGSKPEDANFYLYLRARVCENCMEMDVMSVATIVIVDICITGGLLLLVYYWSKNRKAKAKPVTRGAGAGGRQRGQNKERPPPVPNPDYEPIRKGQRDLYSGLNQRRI
T4 sequence (P04234 22-171 limits assumed, chain 2 of 3): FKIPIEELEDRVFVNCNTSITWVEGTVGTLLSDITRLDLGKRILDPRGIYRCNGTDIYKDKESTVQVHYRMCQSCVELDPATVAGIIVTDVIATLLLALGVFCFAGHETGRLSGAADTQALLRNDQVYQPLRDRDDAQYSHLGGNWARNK
T4 sequence (P09693 23-182 limits assumed, chain 3 of 3): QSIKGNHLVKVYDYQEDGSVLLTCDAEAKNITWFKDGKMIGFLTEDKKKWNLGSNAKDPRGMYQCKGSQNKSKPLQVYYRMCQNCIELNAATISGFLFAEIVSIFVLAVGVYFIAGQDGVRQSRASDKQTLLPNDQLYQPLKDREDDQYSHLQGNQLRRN
Description: (§2) SK-BR-3 cells were digested. T cells were isolated using the human T cell isolation kit (Miltenyi, #130-096-535) as described in the method of the instruction, and resuspended with PBS containing 2% BSA. The cell density was adjusted to 1×10⁶ cells/mL. The cells were seeded in a 96-well V-bottom plate (Corning, #3894) at 100 μL/well, followed by the addition of test antibodies diluted in a 3-fold gradient at a concentration that was 2 times the final concentration, each at 100 μL/well. The cells were incubated at 4° C. for 2 h away from light. Thereafter, the cells in each well were rinsed twice with 100 μL of pre-cooled PBS containing 2% BSA, and centrifuged at 500 g at 4° C. for 5 min, and then the supernatant was discarded. Then each well was added with 100 μL of fluorescent secondary antibody (Alexa Fluor 488-conjugated AffiniPure Goat Anti-Human IgG, Fcγ Fragment Specific, Jackson, #109-545-098, diluted in a 1:500 ratio), and the plate was incubated away from light at 4° C. for 1 h. The cells in each well were washed twice with 100 μL of pre-cooled PBS containing 2% BSA, and centrifuged at 500 g at 4° C. for 5 minutes, and then the supernatant was discarded. Finally, the cells in each well were resuspended with 200 μL of pre-cooled PBS containing 2% BSA, and the fluorescence signal values were read using an ACEA Novocyte3000 flow cytometer.

CD3 on human T cells [8] = target: T4, CD3 on human T cells; test: FACS on human T cells; remark: listed apart in the source
Description: as §2

CD3 on human T cells [9] = target: T4, CD3 on human T cells; test: FACS on human T cells; remark: listed apart in the source
Description: as §2

CD3 on human T cells [10] = target: T4, CD3 on human T cells; test: FACS on human T cells; remark: listed apart in the source
Description: as §2

[11] = target: T1, human B7H4 on the cell surface; test: FACS on SK-BR-3 cells
Description: as §2

CD3 on human T cells [12] = target: T4, CD3 on human T cells; test: FACS on human T cells; EC50 printed as n.d., curve still rising at 100 nM
Description: as §2

[13] = target: T1, human B7H4 on the cell surface; test: FACS on SK-BR-3 cells; the printed number lies below the lowest concentration shown (0.03 nM)
Description: as §2

B2: Control antibody 2 (PR002962) (antibody, human IgG1, kappa, V domains shown)
VH: QLQLQESGPGLVKPSETLSLTCTVSGGSIKSGSYYWGWIRQPPGKGLEWIGNIYYSGSTYYNPSLRSRVTISVDTSKNQFSLKLSSVTAADTAVYYCAREGSYPNQFDPWGQGTLVTVSS
VL: EIVMTQSPATLSVSPGERATLSCRASQSVSSNLAWYQQKPGQAPRLLIYGASTRATGIPARFSGSGSGTEFTLTISSLQSEDFAVYYCQQYHSFPFTFGGGTKVEIKR
notes: Anti-B7H4 IgG1 control antibody from WO2019040780A1 (FivePrime), Fc mutated on the basis of PR002961 to enhance ADCC
- Kd [2]: 4.45 nM
- koff [2]: 0.00116 s⁻¹
- kon [2]: 261000 M⁻¹ s⁻¹
- Competitive inhibition rate (%) [3]: 4.49%
- Competitive inhibition rate (%) [4]: 6.32%
- Competitive inhibition rate (%) [5]: 96.6%
- Competitive inhibition rate (%) [6]: 95.8%

B3: PR001924 (antibody, V domains shown)
VH: EVQLLESGGGLVQPGGSLRLSCAASGFTFSTYAMNWVRQAPGKGLEWVSRIRSKYNNYATYYADSVKDRFTISRDDSKSTLYLQMNSLRAEDTAVYYCVRHGNFGNSYVSWFAYWGQGTLVTVSS
VL: QAVVTQEPSLTVSPGGTVTLTCRSSTGAVTTSNYANWVQQKPGQAPRGLIGGTNKRAPWTPARFSGSLLGDKAALTLLGAQPEDEAEYFCALWYSNLWVFGGGTKLTVLG
notes: also called PR001924 (αCD3 IgG)
- EC50 (CD3 on human T cells [7]): 7.5 nM
- EC50 (CD3 on human T cells [8]): 7.5 nM
- EC50 (CD3 on human T cells [9]): 6.1 nM
- EC50 (CD3 on human T cells [10]): 7.5 nM

Results, then the binder that gave them:

- binding result [1]: binds
B1: PR002405 (antibody, human IgG1, kappa, V domains shown)
VH: QVQLVESGGGVVQPGRSLRLSCAASGFTFRSFGMHWVRQAPGKGLEWVAVISYEGSNEYYADSVKGRFIISRDNSKDTLYLQMNSLRAGDTAVYYCAKGGGLRWYFAYWGQGTLVTVSS
VL: EIVMTQSPATLSVSPGERATLSCRASQSISSNLGWYQQKPGQAPRLLIYGASTRATGIPARFSGSGSGTEFTLTISSLQSEDFAVYYCQQYQSWPPLTFGGGTKVEIKR
notes: variant of PR001476 (H: D54E); also called PR002405 supernatant

- Maximum MFI [11]: 183000
- Maximum MFI (CD3 on human T cells [12]): 73000
- EC50 [13]: 0.006 nM
B4: PR002994 (bispecific antibody, human IgG1, kappa, lambda, L234A L235A)
chain 1: EVQLLESGGGLVQPGGSLRLSCAASGFTFSTYAMNWVRQAPGKGLEWVSRIRSKYNNYATYYADSVKDRFTISRDDSKSTLYLQMNSLRAEDTAVYYCVRHGNFGNSYVSWFAYWGQGTLVTVSSASTKGPSVFPLAPSSKSTSGGTAALGCLVKDYFPEPVTVSWNSGALTSGVHTFPAVLQSSGLYSLSSVVTVPSSSLGTQTYICNVNHKPSNTKVDKKVEPKSC
chain 2: not shown
heavy: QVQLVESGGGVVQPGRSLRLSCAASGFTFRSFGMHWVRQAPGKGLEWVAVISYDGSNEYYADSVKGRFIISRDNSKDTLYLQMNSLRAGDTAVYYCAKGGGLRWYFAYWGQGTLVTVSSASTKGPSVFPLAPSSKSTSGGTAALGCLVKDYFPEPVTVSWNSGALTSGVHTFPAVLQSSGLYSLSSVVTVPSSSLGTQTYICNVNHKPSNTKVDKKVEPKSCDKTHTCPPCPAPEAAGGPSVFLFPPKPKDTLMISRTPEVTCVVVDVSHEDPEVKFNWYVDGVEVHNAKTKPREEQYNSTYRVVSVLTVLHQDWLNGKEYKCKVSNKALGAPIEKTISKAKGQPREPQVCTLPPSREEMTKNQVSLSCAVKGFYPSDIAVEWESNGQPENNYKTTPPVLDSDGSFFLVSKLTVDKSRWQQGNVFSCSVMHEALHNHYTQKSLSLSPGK
light: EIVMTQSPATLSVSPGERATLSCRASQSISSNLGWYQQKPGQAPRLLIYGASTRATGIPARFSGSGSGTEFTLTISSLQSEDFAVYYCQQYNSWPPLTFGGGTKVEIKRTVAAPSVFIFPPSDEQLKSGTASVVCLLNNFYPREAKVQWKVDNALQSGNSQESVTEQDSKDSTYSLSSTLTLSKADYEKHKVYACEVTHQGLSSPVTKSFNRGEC
notes: B7H4 x CD3, 2+1 asymmetric structure (structure 6): CD3 end from PR001924, two B7H4 Fabs from PR001476
